From US7354588B1, “Functional derivatives of ICAM-1 with altered ability to bind LFA-1 or HRV” (Dana Farber Cancer Institute, priority 1987, dated 2008)

B1: Q62PM/API (protein, UniProt P05362 28-532, looked up, variant Q62A M64I)
Intercellular adhesion …: QTSVSPSKVILPRGGSVLVTCSTSCDQPKLLGIETPLPKKELLLPGNNRKVYELSNVQEDSAPICYSNCPDGQSTAKTFLTVYWTPERVELAPLPSWQPVGKNLTLRCQVEGGAPRANLTVVLLRGEKELKREPAVGEPAEVTTTVLVRRDHHGANFSCRTELDLRPQGLELFENTSAPYQLQTFVLPATPPQLVSPRVLEVDTQGTVVCSLDGLFPVSEAQVHLALGDQRLNPTVTYGNDSFSAKASVSVTAEDEGTQRLTCAVILGNQSQETLQTVTIYSFPAPNVILTKPEVSEGTEVTVKCEAHPRAKVTLNGVPAQPLGPRAQLLLKATPEDNGRSFSCSATLEVAGQLIHKNQTRELRVLYGPRLDERDCPGNWTWPENSQQTPMCQAWGNPLPELKCLKDGTFPLPIGESVTVTRDLEGTYLCRARSTQGEVTRKVTVNVLSPRYEIVIITVVAAAVIMGTAGLSTYLYNRQRKIKKYRLQQAQKGTPMKPNTQATPP
B2: H152HGA/EEGS (protein, UniProt P05362 28-532, looked up, variant H152E H153E A155S)
Intercellular adhesion …: QTSVSPSKVILPRGGSVLVTCSTSCDQPKLLGIETPLPKKELLLPGNNRKVYELSNVQEDSQPMCYSNCPDGQSTAKTFLTVYWTPERVELAPLPSWQPVGKNLTLRCQVEGGAPRANLTVVLLRGEKELKREPAVGEPAEVTTTVLVRRDEEGSNFSCRTELDLRPQGLELFENTSAPYQLQTFVLPATPPQLVSPRVLEVDTQGTVVCSLDGLFPVSEAQVHLALGDQRLNPTVTYGNDSFSAKASVSVTAEDEGTQRLTCAVILGNQSQETLQTVTIYSFPAPNVILTKPEVSEGTEVTVKCEAHPRAKVTLNGVPAQPLGPRAQLLLKATPEDNGRSFSCSATLEVAGQLIHKNQTRELRVLYGPRLDERDCPGNWTWPENSQQTPMCQAWGNPLPELKCLKDGTFPLPIGESVTVTRDLEGTYLCRARSTQGEVTRKVTVNVLSPRYEIVIITVVAAAVIMGTAGLSTYLYNRQRKIKKYRLQQAQKGTPMKPNTQATPP
B3: V136GE/GVK (protein, UniProt P05362 28-532, looked up, variant V136G G137V E138K)
Intercellular adhesion …: QTSVSPSKVILPRGGSVLVTCSTSCDQPKLLGIETPLPKKELLLPGNNRKVYELSNVQEDSQPMCYSNCPDGQSTAKTFLTVYWTPERVELAPLPSWQPVGKNLTLRCQVEGGAPRANLTVVLLRGEKELKREPAGVKPAEVTTTVLVRRDHHGANFSCRTELDLRPQGLELFENTSAPYQLQTFVLPATPPQLVSPRVLEVDTQGTVVCSLDGLFPVSEAQVHLALGDQRLNPTVTYGNDSFSAKASVSVTAEDEGTQRLTCAVILGNQSQETLQTVTIYSFPAPNVILTKPEVSEGTEVTVKCEAHPRAKVTLNGVPAQPLGPRAQLLLKATPEDNGRSFSCSATLEVAGQLIHKNQTRELRVLYGPRLDERDCPGNWTWPENSQQTPMCQAWGNPLPELKCLKDGTFPLPIGESVTVTRDLEGTYLCRARSTQGEVTRKVTVNVLSPRYEIVIITVVAAAVIMGTAGLSTYLYNRQRKIKKYRLQQAQKGTPMKPNTQATPP
B4: E111GGA/KAGS (protein, UniProt P05362 28-532, looked up, variant E111K G112A A114S)
Intercellular adhesion …: QTSVSPSKVILPRGGSVLVTCSTSCDQPKLLGIETPLPKKELLLPGNNRKVYELSNVQEDSQPMCYSNCPDGQSTAKTFLTVYWTPERVELAPLPSWQPVGKNLTLRCQVKAGSPRANLTVVLLRGEKELKREPAVGEPAEVTTTVLVRRDHHGANFSCRTELDLRPQGLELFENTSAPYQLQTFVLPATPPQLVSPRVLEVDTQGTVVCSLDGLFPVSEAQVHLALGDQRLNPTVTYGNDSFSAKASVSVTAEDEGTQRLTCAVILGNQSQETLQTVTIYSFPAPNVILTKPEVSEGTEVTVKCEAHPRAKVTLNGVPAQPLGPRAQLLLKATPEDNGRSFSCSATLEVAGQLIHKNQTRELRVLYGPRLDERDCPGNWTWPENSQQTPMCQAWGNPLPELKCLKDGTFPLPIGESVTVTRDLEGTYLCRARSTQGEVTRKVTVNVLSPRYEIVIITVVAAAVIMGTAGLSTYLYNRQRKIKKYRLQQAQKGTPMKPNTQATPP
B5: D71GQS/NGEL (protein, UniProt P05362 28-532, looked up, variant D71N Q73E S74L)
Intercellular adhesion …: QTSVSPSKVILPRGGSVLVTCSTSCDQPKLLGIETPLPKKELLLPGNNRKVYELSNVQEDSQPMCYSNCPNGELTAKTFLTVYWTPERVELAPLPSWQPVGKNLTLRCQVEGGAPRANLTVVLLRGEKELKREPAVGEPAEVTTTVLVRRDHHGANFSCRTELDLRPQGLELFENTSAPYQLQTFVLPATPPQLVSPRVLEVDTQGTVVCSLDGLFPVSEAQVHLALGDQRLNPTVTYGNDSFSAKASVSVTAEDEGTQRLTCAVILGNQSQETLQTVTIYSFPAPNVILTKPEVSEGTEVTVKCEAHPRAKVTLNGVPAQPLGPRAQLLLKATPEDNGRSFSCSATLEVAGQLIHKNQTRELRVLYGPRLDERDCPGNWTWPENSQQTPMCQAWGNPLPELKCLKDGTFPLPIGESVTVTRDLEGTYLCRARSTQGEVTRKVTVNVLSPRYEIVIITVVAAAVIMGTAGLSTYLYNRQRKIKKYRLQQAQKGTPMKPNTQATPP
B6: R166PQ/EPA (protein, UniProt P05362 28-532, looked up, variant R166E Q168A)
Intercellular adhesion …: QTSVSPSKVILPRGGSVLVTCSTSCDQPKLLGIETPLPKKELLLPGNNRKVYELSNVQEDSQPMCYSNCPDGQSTAKTFLTVYWTPERVELAPLPSWQPVGKNLTLRCQVEGGAPRANLTVVLLRGEKELKREPAVGEPAEVTTTVLVRRDHHGANFSCRTELDLEPAGLELFENTSAPYQLQTFVLPATPPQLVSPRVLEVDTQGTVVCSLDGLFPVSEAQVHLALGDQRLNPTVTYGNDSFSAKASVSVTAEDEGTQRLTCAVILGNQSQETLQTVTIYSFPAPNVILTKPEVSEGTEVTVKCEAHPRAKVTLNGVPAQPLGPRAQLLLKATPEDNGRSFSCSATLEVAGQLIHKNQTRELRVLYGPRLDERDCPGNWTWPENSQQTPMCQAWGNPLPELKCLKDGTFPLPIGESVTVTRDLEGTYLCRARSTQGEVTRKVTVNVLSPRYEIVIITVVAAAVIMGTAGLSTYLYNRQRKIKKYRLQQAQKGTPMKPNTQATPP
B7: R149RD/EEG (protein, UniProt P05362 28-532, looked up, variant R149E R150E D151G)
Intercellular adhesion …: QTSVSPSKVILPRGGSVLVTCSTSCDQPKLLGIETPLPKKELLLPGNNRKVYELSNVQEDSQPMCYSNCPDGQSTAKTFLTVYWTPERVELAPLPSWQPVGKNLTLRCQVEGGAPRANLTVVLLRGEKELKREPAVGEPAEVTTTVLVEEGHHGANFSCRTELDLRPQGLELFENTSAPYQLQTFVLPATPPQLVSPRVLEVDTQGTVVCSLDGLFPVSEAQVHLALGDQRLNPTVTYGNDSFSAKASVSVTAEDEGTQRLTCAVILGNQSQETLQTVTIYSFPAPNVILTKPEVSEGTEVTVKCEAHPRAKVTLNGVPAQPLGPRAQLLLKATPEDNGRSFSCSATLEVAGQLIHKNQTRELRVLYGPRLDERDCPGNWTWPENSQQTPMCQAWGNPLPELKCLKDGTFPLPIGESVTVTRDLEGTYLCRARSTQGEVTRKVTVNVLSPRYEIVIITVVAAAVIMGTAGLSTYLYNRQRKIKKYRLQQAQKGTPMKPNTQATPP

Experiments:
LFA-1 = molecular target: T1, LFA-1 (Homo sapiens, UniProt P05107+P20701); assay: Adherence of COS cells expressing ICAM-1 or ICAM-1 mutants to plastic-bound purified LFA-1; assay type: cell-based; conditions: COS cells expressing ICAM-1 mutant adhering to LFA-1 coated plastic; normalized for percent of cells expressing mutant and for wild type binding; mean
T1 construct: endogenous in cells
T1 sequence (P20701 26-1170): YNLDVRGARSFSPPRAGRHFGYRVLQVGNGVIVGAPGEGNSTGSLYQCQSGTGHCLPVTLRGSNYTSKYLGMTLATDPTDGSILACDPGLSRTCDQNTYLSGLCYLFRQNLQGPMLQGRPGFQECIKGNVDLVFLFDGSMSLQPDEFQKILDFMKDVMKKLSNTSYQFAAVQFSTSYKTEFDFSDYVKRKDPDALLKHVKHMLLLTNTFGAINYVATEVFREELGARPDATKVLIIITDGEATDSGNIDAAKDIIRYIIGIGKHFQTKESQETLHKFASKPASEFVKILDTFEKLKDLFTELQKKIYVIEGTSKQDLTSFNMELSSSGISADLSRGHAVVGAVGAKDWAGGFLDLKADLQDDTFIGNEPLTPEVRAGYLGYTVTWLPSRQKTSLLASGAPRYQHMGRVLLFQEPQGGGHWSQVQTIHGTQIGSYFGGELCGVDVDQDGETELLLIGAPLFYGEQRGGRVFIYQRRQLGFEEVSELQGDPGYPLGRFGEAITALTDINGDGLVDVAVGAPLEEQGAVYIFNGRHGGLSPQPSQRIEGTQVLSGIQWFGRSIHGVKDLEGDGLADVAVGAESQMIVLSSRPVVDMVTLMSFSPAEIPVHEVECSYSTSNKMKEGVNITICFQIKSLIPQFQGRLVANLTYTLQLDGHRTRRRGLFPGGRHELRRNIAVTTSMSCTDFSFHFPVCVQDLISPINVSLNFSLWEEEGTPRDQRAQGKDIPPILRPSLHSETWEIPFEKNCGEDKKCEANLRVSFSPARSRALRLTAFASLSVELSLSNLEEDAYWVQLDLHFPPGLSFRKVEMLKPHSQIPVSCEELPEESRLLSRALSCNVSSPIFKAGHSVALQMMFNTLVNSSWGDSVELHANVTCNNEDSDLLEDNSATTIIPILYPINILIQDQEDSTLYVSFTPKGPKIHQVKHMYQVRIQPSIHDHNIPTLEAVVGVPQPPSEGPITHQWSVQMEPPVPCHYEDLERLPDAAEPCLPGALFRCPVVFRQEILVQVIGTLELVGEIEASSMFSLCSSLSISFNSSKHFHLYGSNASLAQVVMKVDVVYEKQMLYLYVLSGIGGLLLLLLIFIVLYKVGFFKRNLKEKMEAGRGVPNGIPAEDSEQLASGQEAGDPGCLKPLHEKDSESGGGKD
T1 sequence (P05107 23-769): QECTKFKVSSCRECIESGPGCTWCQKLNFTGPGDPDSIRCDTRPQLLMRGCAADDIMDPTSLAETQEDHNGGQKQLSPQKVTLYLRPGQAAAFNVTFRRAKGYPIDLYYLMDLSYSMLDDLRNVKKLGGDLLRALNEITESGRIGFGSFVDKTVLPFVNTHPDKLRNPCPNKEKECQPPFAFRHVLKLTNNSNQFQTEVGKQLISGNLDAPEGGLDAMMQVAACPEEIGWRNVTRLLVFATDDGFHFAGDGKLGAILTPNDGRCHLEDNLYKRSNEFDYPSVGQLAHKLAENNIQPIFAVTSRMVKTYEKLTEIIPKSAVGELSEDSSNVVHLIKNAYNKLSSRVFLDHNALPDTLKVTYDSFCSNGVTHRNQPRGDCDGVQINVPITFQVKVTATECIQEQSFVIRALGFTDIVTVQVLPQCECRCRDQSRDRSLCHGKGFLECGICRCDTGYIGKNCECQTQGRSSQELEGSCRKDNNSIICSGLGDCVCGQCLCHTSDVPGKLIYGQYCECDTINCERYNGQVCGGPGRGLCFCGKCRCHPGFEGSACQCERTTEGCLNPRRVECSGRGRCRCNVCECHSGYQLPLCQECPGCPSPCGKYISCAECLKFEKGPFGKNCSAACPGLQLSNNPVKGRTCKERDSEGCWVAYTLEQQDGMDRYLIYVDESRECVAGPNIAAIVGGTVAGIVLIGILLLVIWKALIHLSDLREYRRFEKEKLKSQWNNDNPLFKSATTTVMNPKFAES

HRV14 = assay: Binding of [^35S]-Met labeled HRV14 to COS cells expressing ICAM-1 mutants; assay type: cell-based, human rhinovirus 14; conditions: 35S met-labeled HRV14 binding to COS cells expressing ICAM-1 mutant; normalized for percent of cells expressing mutant and for wild type binding; mean
CL203 mAb = assay: Indirect immunofluorescence flow cytofluorometry: mAb CL203 binding to COS cells expressing ICAM-1 mutants (SLFI, % WT); assay type: cell-based; conditions: SLFI of CL203 for mutant normalized to wild type CL203 SLFI; level of expression
Method: (§1) For HRV binding studies, COS cells were reseeded in a 24 well plate. One day later, the confluent monolayer was washed twice with 1 ml of RPMI 1640/10 mM MgCl2/25 mM Hepes pH 7.3 (rhinovirus-14 buffer). Transfected COS cells were labeled with 51Cr for binding to LFA-1 coated plastic as previously described (Staunton, D. E., et al., Nature 339:61-64 (1989). Immunoprecipitation and indirect immunofluorescence was performed using ICAM-1 MAb RR1/1 (Rothlein, R., et al., J. Immunol. 137:1270-1274 (1986)), R6.5 (Rothlein, R., et al., J. Immunol. 141:1665-1669 (1988)), LB-1 (Clark, E. A., et al., Hum. Immunol. 16:100-113 (1986)) and CL203 (Maio, M., J. Immunol. 143:181-188 (1989), all of which references are incorporated herein by reference).
(§2) Binding of RR1, R6.5, and LB-2 mAb was normalized to binding of CL203 mAb using Specific Linear Fluorescence Intensity (SLFI): % CL203=(mAbSLFI)×100)/CL203mABSLFI
(§3) In Table 25, the notation for the mutations uses the one-letter code for the wild-type sequence followed by a slash and the one-letter code for the corresponding mutant sequence. The position of the first amino acid within the sequence is indicated. Wild type residues precede the slash followed by the residues they were substituted for in the mutant. COS cells expressing ICAM-1 mutants were tested for adherence to LFA-1 coated plastic and for binding 35S met-labeled HRV14. LFA-1 and HRV14 binding is normalized for percent of cells expressing mutant ICAM-1 and for binding of wild type expressing cells. Binding is presented as mean and standard error (SE) for multiple experiments (n). Effects of two-fold or greater were reproducible in LFA-1, HRV and mAb binding assays and thus considered significant (bold and underlined). The specific linear fluorescence intensity (SLFI) of CL203 for each mutant is normalized to that of wild type CL203 SLFI (% WT) as discussed above. The SLFI of RR1/1, R6.5 and LB-2 SLFI is normalized to the CL203 SLFI of the mutant (% CL203) as described above.

RR1/1 mAb = assay: Indirect immunofluorescence flow cytofluorometry: mAb RR1/1 binding to COS cells expressing ICAM-1 mutants (SLFI, % CL203); assay type: cell-based; conditions: SLFI normalized to CL203 SLFI of the mutant
Method: as §1, §2, §3

R6.5 mAb = assay: Indirect immunofluorescence flow cytofluorometry: mAb R6.5 binding to COS cells expressing ICAM-1 mutants (SLFI, % CL203); assay type: cell-based; conditions: SLFI normalized to CL203 SLFI of the mutant
Method: as §1, §2, §3

LB-2 mAb = assay: Indirect immunofluorescence flow cytofluorometry: mAb LB-2 binding to COS cells expressing ICAM-1 mutants (SLFI, % CL203); assay type: cell-based; conditions: SLFI normalized to CL203 SLFI of the mutant
Method: as §1, §2, §3

Row | Molecule | LFA-1 Binding % (LFA-1) [%] | HRV Binding % (HRV14) [%] | Cl203 % WT (SLFI) (CL203 mAb) [% WT] | SLFI (% CL203) RR/1 (RR1/1 mAb) [% CL203] | SLFI (% CL203) R6.5 (R6.5 mAb) [% CL203] | SLFI (% CL203) LB-2 (LB-2 mAb) [% CL203]
1 | B1 | 104 | 182 | 200 | 59 | 81 | 73
2 | B2 | 85 | 82 | 94 | 103 | 94 | 112
3 | B3 | 92 | 117 | 171 | 220 | 172 | 138
4 | B4 | 103 | 162 | 122 | 81 | 0 | 89
5 | B5 | 1 | 21 | 161 | 0 | 48 | 26
6 | B6 | 75 | 25 | 94 | 100 | 109 | 64
7 | B7 | 81 | 139 | 159 | 166 | 189 | 166
